Measured values from the supplement of paper PMC7125110.
± gives the standard error. Variants at the floor of the assay were thinned out.

B1: glmS ribozyme (parent)
chain: AUAAAAGCGCCAGAACUACAGAAAUGUAGUUGACGAGGAGGAGGUUUAUCGAAUUUUCGGCGGAUGCCUCCAAA

Experiments:
Details in all cases: with glucosamine-6-phosphate
glucosamine-6-phosphate [1] = variants of: B1; test: self-cleavage kobs at 40 uM GlcN6P; higher = faster cleavage; RNA array
Summary of the method: (§1)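 Barcoded ribozyme variants, transcribed in situ by E. coli RNA polymerase on sequenced MiSeq chips, were followed via a hybridised Cy3 probe at 37 °C. Glucosamine-6-phosphate ranged from 40 μM to 10 mM in HEPES/KCl/Mg(OAc)2 buffer. kobs came from decay fits to per-tile medians, and kcat and KM from weighted Michaelis–Menten fits.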

glucosamine-6-phosphate [2] = variants of: B1; test: self-cleavage kobs at 10000 uM GlcN6P; higher = faster cleavage; RNA array
Summary of the method: as §1

glucosamine-6-phosphate [3] = variants of: B1; test: self-cleavage kobs at 160 uM GlcN6P; higher = faster cleavage; RNA array
Summary of the method: as §1

glucosamine-6-phosphate [4] = variants of: B1; test: self-cleavage kobs at 640 uM GlcN6P; higher = faster cleavage; RNA array
Summary of the method: as §1

glucosamine-6-phosphate [5] = variants of: B1; test: self-cleavage kobs at 2500 uM GlcN6P; higher = faster cleavage; RNA array
Summary of the method: as §1

Row | Variant | self-cleavage kobs at 40 uM GlcN6P (glucosamine-6-phosphate [1]) [s⁻¹] | self-cleavage kobs at 10000 uM GlcN6P (glucosamine-6-phosphate [2]) [s⁻¹] | self-cleavage kobs at 160 uM GlcN6P (glucosamine-6-phosphate [3]) [s⁻¹] | self-cleavage kobs at 640 uM GlcN6P (glucosamine-6-phosphate [4]) [s⁻¹] | self-cleavage kobs at 2500 uM GlcN6P (glucosamine-6-phosphate [5]) [s⁻¹]
1 | G29A U56C G59A C71A | < 1e-05 | < 1e-05 | – | – | –
2 | C11U G51U | < 1e-05 | < 1e-05 | < 1e-05 | < 1e-05 | < 1e-05
3 | G9U U30G | < 1e-05 | < 1e-05 | – | < 1e-05 | –
4 | U47C G62A | < 1e-05 | < 1e-05 | – | – | –
5 | G26A C67U | 0.000613 ± 0.00023 | – | – | – | –
6 | G63A G66U | < 1e-05 | < 1e-05 | – | < 1e-05 | < 1e-05
7 | C10U G60C | < 1e-05 | < 1e-05 | < 1e-05 | < 1e-05 | < 1e-05
8 | G9A G13A G43U G60A | < 1e-05 | – | – | – | –
9 | G38C U45C U55C | < 1e-05 | – | – | – | < 1e-05
10 | G63A A64U | < 1e-05 | < 1e-05 | – | < 1e-05 | < 1e-05
11 | G37U C58A G60C C70A | < 1e-05 | < 1e-05 | – | – | –
12 | G9C G44A A52U | < 1e-05 | – | – | – | –
13 | G7U G40A | < 1e-05 | – | – | – | –
14 | A33G A36G G51U | < 1e-05 | < 1e-05 | – | – | –
15 | G38C U65G G66A | < 1e-05 | – | < 1e-05 | < 1e-05 | < 1e-05
16 | G9A C67U | < 1e-05 | – | < 1e-05 | – | < 1e-05
17 | G41A C67U U69A | < 1e-05 | – | – | – | –
18 | C11A G44U | < 1e-05 | – | < 1e-05 | < 1e-05 | < 1e-05
19 | C8U A15G | < 1e-05 | < 1e-05 | < 1e-05 | < 1e-05 | –
20 | A33G U47G | < 1e-05 | < 1e-05 | < 1e-05 | < 1e-05 | –
21 | G7A G41U A42G A52G | < 1e-05 | < 1e-05 | – | – | –
22 | A12G A14G A15C U30G | 7.29e-05 ± 2e-05 | 0.0042 ± 0.00087 | – | – | –
23 | A14C A36G A48U G59A | < 1e-05 | < 1e-05 | – | < 1e-05 | < 1e-05
24 | G38C A48U | < 1e-05 | < 1e-05 | – | – | –
25 | U46A A48C C70G C71U | < 1e-05 | < 1e-05 | – | – | –
26 | C11A U30C | < 1e-05 | – | < 1e-05 | – | 4.93e-05 ± 1.8e-05

Row | Variant | self-cleavage kobs at 40 uM GlcN6P (glucosamine-6-phosphate [1]) [s⁻¹] | self-cleavage kobs at 10000 uM GlcN6P (glucosamine-6-phosphate [2]) [s⁻¹] | self-cleavage kobs at 160 uM GlcN6P (glucosamine-6-phosphate [3]) [s⁻¹] | self-cleavage kobs at 640 uM GlcN6P (glucosamine-6-phosphate [4]) [s⁻¹] | self-cleavage kobs at 2500 uM GlcN6P (glucosamine-6-phosphate [5]) [s⁻¹]
27 | G63A U65C | < 1e-05 | < 1e-05 | – | < 1e-05 | –
28 | A42U A52U A64U G66U | < 1e-05 | – | – | – | –
29 | C16A G29C U56G A64G | 2.81e-05 ± 1.4e-05 | 0.00203 ± 0.00038 | – | – | –
30 | A52C A64U | < 1e-05 | < 1e-05 | < 1e-05 | < 1e-05 | < 1e-05
31 | C10A G62C | < 1e-05 | – | < 1e-05 | < 1e-05 | –
32 | A15U G44C U56C | < 1e-05 | < 1e-05 | < 1e-05 | < 1e-05 | < 1e-05
33 | G32A G40U A42U G44C C67G | < 1e-05 | < 1e-05 | – | – | –
34 | C10U G37C G66A | < 1e-05 | – | – | – | –
35 | G38A A42C | < 1e-05 | < 1e-05 | – | – | –
36 | C10U A14C C61U | < 1e-05 | < 1e-05 | – | – | –
37 | G32C G44A | < 1e-05 | < 1e-05 | < 1e-05 | < 1e-05 | < 1e-05
38 | G29C A64U | < 1e-05 | – | < 1e-05 | – | –
39 | A6U A12U U65G | < 1e-05 | – | – | – | –
40 | A15U A64C | < 1e-05 | – | < 1e-05 | – | –
41 | G43C A64U | < 1e-05 | < 1e-05 | < 1e-05 | – | < 1e-05
42 | A1C C11U A64G | 8.55e-05 ± 2.5e-05 | 0.00142 ± 0.00035 | – | – | –
43 | U30C G59A C68U | < 1e-05 | < 1e-05 | – | – | –
44 | G29U G38U U55G | < 1e-05 | < 1e-05 | – | – | < 1e-05
45 | C61A G62C G63U C71A | < 1e-05 | < 1e-05 | – | – | –
46 | A42G G62U C68U | < 1e-05 | – | – | – | –
47 | A14G U31A A52C | < 1e-05 | – | – | – | –
48 | G43U U47G | < 1e-05 | – | < 1e-05 | – | –
49 | C10U A39U G43C | < 1e-05 | < 1e-05 | – | – | –
50 | G13U U49A C58A C68U C70U | < 1e-05 | – | – | – | –
51 | G59A A64G U69G | < 1e-05 | – | – | – | –
52 | A53G U57C G63U | < 1e-05 | < 1e-05 | – | – | –
